What was measured:
GST-LHY, Q6R0H1 = target: T1, GST-LHY, Q6R0H1
T1 chain: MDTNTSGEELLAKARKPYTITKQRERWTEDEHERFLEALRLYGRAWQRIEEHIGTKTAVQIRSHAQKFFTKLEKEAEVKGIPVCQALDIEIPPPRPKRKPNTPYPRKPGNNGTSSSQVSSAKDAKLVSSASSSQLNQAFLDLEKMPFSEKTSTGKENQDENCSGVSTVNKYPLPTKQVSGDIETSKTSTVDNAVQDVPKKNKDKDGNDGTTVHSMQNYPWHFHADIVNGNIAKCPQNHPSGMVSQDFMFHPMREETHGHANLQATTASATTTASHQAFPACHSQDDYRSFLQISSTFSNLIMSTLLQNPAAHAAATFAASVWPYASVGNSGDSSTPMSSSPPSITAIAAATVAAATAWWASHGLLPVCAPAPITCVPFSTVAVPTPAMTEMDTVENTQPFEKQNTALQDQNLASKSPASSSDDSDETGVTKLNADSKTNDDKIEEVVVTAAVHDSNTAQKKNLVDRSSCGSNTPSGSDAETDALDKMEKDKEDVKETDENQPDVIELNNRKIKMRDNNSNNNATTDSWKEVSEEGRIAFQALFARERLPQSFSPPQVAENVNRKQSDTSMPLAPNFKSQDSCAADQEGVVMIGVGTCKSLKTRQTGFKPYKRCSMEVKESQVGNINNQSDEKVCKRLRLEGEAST

[1] = target: glutathione-S-transferase (GST) [GST: P08515]
Sequence of glutathione-S-transferase (GST) [GST: P08515] (P08515 whole entry): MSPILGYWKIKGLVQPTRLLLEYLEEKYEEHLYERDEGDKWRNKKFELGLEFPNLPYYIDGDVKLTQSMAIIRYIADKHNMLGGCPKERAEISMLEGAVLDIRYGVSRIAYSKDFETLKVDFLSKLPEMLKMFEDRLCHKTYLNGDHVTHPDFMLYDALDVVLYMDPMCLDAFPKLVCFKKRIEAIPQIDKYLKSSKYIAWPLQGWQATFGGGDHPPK

His-tagged CKB3 = target: T2, His-tagged CKB3
T2 chain: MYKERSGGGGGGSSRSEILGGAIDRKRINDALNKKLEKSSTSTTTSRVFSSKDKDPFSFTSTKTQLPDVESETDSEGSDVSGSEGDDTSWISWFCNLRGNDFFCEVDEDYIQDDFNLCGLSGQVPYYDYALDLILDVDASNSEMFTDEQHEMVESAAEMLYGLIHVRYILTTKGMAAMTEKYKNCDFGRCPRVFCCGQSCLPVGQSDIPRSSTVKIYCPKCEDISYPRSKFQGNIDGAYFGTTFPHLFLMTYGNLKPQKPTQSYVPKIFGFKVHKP

His-tagged CKB1, P40228 = target: T3, His-tagged CKB1, P40228
T3 chain: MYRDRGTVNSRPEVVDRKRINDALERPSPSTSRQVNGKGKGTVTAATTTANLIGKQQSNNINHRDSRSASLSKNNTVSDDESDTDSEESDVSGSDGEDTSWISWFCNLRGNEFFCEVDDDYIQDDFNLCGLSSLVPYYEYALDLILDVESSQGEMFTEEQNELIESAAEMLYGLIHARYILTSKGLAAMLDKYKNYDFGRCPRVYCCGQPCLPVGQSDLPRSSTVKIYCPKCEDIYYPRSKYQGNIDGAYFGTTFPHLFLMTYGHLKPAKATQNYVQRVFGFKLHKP

Sequence of GST-CCA1, P92973 (P92973 whole entry): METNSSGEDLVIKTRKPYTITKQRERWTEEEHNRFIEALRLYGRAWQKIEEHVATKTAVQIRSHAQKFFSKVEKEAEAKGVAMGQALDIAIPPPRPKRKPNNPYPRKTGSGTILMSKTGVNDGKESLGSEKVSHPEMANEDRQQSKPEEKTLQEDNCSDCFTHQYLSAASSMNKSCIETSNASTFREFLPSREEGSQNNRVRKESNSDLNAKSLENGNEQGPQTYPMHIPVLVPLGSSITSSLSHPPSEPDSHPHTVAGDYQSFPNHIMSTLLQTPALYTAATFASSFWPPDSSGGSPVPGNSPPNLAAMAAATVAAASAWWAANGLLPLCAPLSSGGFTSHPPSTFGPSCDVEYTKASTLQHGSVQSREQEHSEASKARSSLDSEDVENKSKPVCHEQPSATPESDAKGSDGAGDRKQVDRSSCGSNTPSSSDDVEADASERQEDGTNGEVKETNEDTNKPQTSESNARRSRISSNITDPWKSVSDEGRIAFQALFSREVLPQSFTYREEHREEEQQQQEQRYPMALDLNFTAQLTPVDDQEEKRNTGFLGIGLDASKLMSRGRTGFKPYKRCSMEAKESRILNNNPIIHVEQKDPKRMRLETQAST

B1: CKA1 (α-subunit of Arabidopsis protein kinase CK2) (protein)
chain: MSKARVYTEVNVIRPKDYWDYESLIVQWGEQDDYEVVRKVGRGKYSEVFEGINVNSKEKCIIKILKPVKKKKIRREIKILQNLCGGPNIVKLLDVVRDQHSKTPSLIFEYVNSTDFKVLYPTLTDYDIRYYIYELLKALDFCHSQGIMHRDVKPHNVMIDHELRKLRLIDWGLAEFYHPGKEYNVRVASRYFKGPELLVDLQDYDYSLDMWSLGCMFAGMIFRKEPFFYGHDNQDQLVKIAKVLGTDELNAYLNKYQLELDPQLEALVGRHSRKPWSKFINADNQHLVSPEAIDFLDKLLRYDHQDRLTAKEAMAHAYFAQVRAAETSRMRSQ
in vitro phosphorylation with [γ-32P]ATP, SDS-PAGE autoradiography (GST-LHY, Q6R0H1): CKA1, the α-subunit of CK2, could phosphorylate LHY | in vitro phosphorylation with [γ-32P]ATP, SDS-PAGE autoradiography (GST-CCA1, P92973): a large amount of CKA1 (280 ng) phosphorylates GST-CCA1 but not GST | in vitro phosphorylation with [γ-32P]ATP, SDS-PAGE autoradiography [1]: a large amount of CKA1 (280 ng) phosphorylates GST-CCA1 but not GST | phosphorylation of GST-CCA1 by 14 ng of CKA1 with 35 ng of β-subunit (His-tagged CKB3): a strong stimulation of the CCA1 phosphorylation was observed by adding either CKB1 or CKB3 | phosphorylation of GST-LHY by CKA1 with added β-subunit (His-tagged CKB3): this phosphorylation was enhanced by adding either CKB1 or CKB3 | phosphorylation of GST-CCA1 by 14 ng of CKA1 with 35 ng of β-subunit (His-tagged CKB1, P40228): a strong stimulation of the CCA1 phosphorylation was observed by adding either CKB1 or CKB3 | phosphorylation of GST-LHY by CKA1 with added β-subunit (His-tagged CKB1, P40228): this phosphorylation was enhanced by adding either CKB1 or CKB3

Reference: patent US6727407
